Where “and” joins values, the source holds several entries; their conditions need not be identical. Equal values may be shown once.
Tested on: MALASSEZIA GLOBOSA
Assay: Inhibition of Malassezia globosa growth, colony count (UFC/ml) on Dixon's Agar
Type: cell-based
Conditions: for dil 10X colony count: 200 μl of suspension diluted 10X on Petri dish; for dil 10X colony count / X50 (calculation made based on the dilution): three replicates; for AVERAGE: average of three replicates; for % reduction of Malassezia globosa cells growth (% increase of antimycotic activity): compared to CICLOPIROXOLAMINE alone; for X50 (calculation made based on the dilution): dil 10X count x50
Experimental: To assess the capacity of the LACTOFERRIN to enhance the antimycotic action of the CIPROPIROXOLAMIN, a suspension of a MALASSEZIA GLOBOSA STRAIN is inoculated on a specific culture medium and the capacity of the compounds to inhibit the mycotic growth is observed, by counting of the UFC/ml.
As first approach, the two compounds are tested at the concentration of 1:500 and, subsequently, diluted in culture medium at 2 decreasing concentrations (10× and 100×) in order to visualize the individual activities. Then in order to evaluate the capacity of the LACTOFERRIN to increase the antimycotic effect of the CICLOPIROXOLAMIN, the same test was carried out on the mix of the two active ingredients at different ratios (1:2 and 1:5).
Each test was performed three times and the incubation times were 1 and 4 hours respectively.
Based on the results obtained, the best dilution for the execution of the tests was the 10× dilution and both the incubation times (1 hour and 4 hours) were taken into consideration since the experimental conditions permitted an accurate count to be carried out of the colonies on the Petri dishes.
The microorganism used is MALASSEZIA GLOBOSA.
The microorganisms were cultured in specific culture medium (Dixon's Agar) until reaching a concentration of approximately […] per ml. Aliquots of 1 ml of this inoculum were then taken to which were added respectively: • Ciclopiroxolamine 1:500 • Lactoferrin 1:500 • Mixture 1:2 Ciclopiroxolamine:lactoferrin • Mixture 1:5 Ciclopiroxolamine:lactoferrin
As positive control, the untreated inoculum was used (MALASSEZIA and diluting liquid), as negative controls the two active ingredients in diluting liquid.
After incubations of 1 hour and 4 hours respectively, aliquots of 200 μl of each suspension were spread on Petri dishes.
For each treatment, the test was carried out three times and for 3 different dilutions (non diluted suspension (TQ), dilution 10× and dilution 100×).
The 54 dishes obtained were then examined, after incubation of 5-6 days and the microbial load of each specimen was calculated (UFC/ml).
The % increase of the antimycotic property corresponds to the % reduction of the growth of Malassezia Globosa

B1: Lactoferrin (protein, UniProt P02788 20-710, looked up)
Lactotransferrin: GRRRSVQWCAVSQPEATKCFQWQRNMRKVRGPPVSCIKRDSPIQCIQAIAENRADAVTLDGGFIYEAGLAPYKLRPVAAEVYGTERQPRTHYYAVAVVKKGGSFQLNELQGLKSCHTGLRRTAGWNVPIGTLRPFLNWTGPPEPIEAAVARFFSASCVPGADKGQFPNLCRLCAGTGENKCAFSSQEPYFSYSGAFKCLRDGAGDVAFIRESTVFEDLSDEAERDEYELLCPDNTRKPVDKFKDCHLARVPSHAVVARSVNGKEDAIWNLLRQAQEKFGKDKSPKFQLFGSPSGQKDLLFKDSAIGFSRVPPRIDSGLYLGSGYFTAIQNLRKSEEEVAARRARVVWCAVGEQELRKCNQWSGLSEGSVTCSSASTTEDCIALVLKGEADAMSLDGGYVYTAGKCGLVPVLAENYKSQQSSDPDPNCVDRPVEGYLAVAVVRRSDTSLTWNSVKGKKSCHTAVDRTAGWNIPMGLLFNQTGSCKFDEYFSQSCAPGSDPRSNLCALCIGDEQGENKCVPNSNERYYGYTGAFRCLAENAGDVAFVKDVTVLQNTDGNNNEAWAKDLKLADFALLCLDGKRKPVTEARSCHLAMAPNHAVVSRMDKVERLKQVLLHQQAKFGRNGSDCPDKFCLFQSETKNLLFNDNTECLARLHGKTTYEKYLGPQYVAGITNLKKCSTSPLLEACEFLRK
- Log (AVERAGE) (period of incubation 1 hour): 4.13
- dil 10X colony count (period of incubation 1 hour): 303 and 256 and 250
- AVERAGE (period of incubation 1 hour): 13483.33 UFC/ml
- % reduction of Malassezia globosa cells growth (% increase of antimycotic activity) (period of incubation 1 hour): −39.4%
- X50 (calculation made based on the dilution) (period of incubation 1 hour): 15150 UFC/ml and 12800 UFC/ml and 12500 UFC/ml
- Log (AVERAGE) (period of incubation 4 hour): 4.109
- dil 10X colony count (period of incubation 4 hour): 340 and 232 and 200
- AVERAGE (period of incubation 4 hour): 12866.67 UFC/ml
- % reduction of Malassezia globosa cells growth (% increase of antimycotic activity) (period of incubation 4 hour): −695.8%
- X50 (calculation made based on the dilution) (period of incubation 4 hour): 17000 UFC/ml and 11600 UFC/ml and 10000 UFC/ml
